In patent US20140242069:

Target: GST-KRT19 fusion protein (UniProt P08727)
UniProt P08727, sequence (P08727 whole entry, the tested form may be a part): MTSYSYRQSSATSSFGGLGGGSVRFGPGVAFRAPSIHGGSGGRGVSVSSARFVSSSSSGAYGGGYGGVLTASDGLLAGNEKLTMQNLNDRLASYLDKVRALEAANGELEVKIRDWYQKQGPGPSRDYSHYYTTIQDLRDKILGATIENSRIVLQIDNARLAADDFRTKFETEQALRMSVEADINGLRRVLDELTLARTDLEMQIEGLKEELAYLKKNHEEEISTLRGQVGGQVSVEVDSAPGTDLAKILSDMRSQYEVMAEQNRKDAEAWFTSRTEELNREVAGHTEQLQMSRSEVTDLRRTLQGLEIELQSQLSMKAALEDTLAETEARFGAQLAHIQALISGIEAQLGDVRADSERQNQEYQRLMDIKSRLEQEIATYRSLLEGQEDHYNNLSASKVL

## HA-Akt protein
  in vitro kinase assay ([gamma-32P]ATP, SDS-PAGE, autoradiography): Akt mediated Ser35 phosphorylation of KRT
